Test [1] concerns 293T cells. The test can be described thus: DAPI apoptosis assay in 293T cells. It counts as cell-based, human. On the procedure:
Apoptosis assays—For nuclear morphological change analysis, cells were trypsinized, washed with PBS, fixed with 3.7% paraformaldehyde, and stained with DAPI (4,6-diamidino-2-phenylindole) (50 μg/ml) to visualize the nuclei by UV-microscopy. The percentages of apoptotic cells were determined by counting 300 GFP-positive cells, scoring cells having nuclear fragmentation and/or chromatin condensation.
DAPI staining was used to study the apoptotic effect of TR3/Bcl-2 interaction. 293T cells were transfected with GFP-TR3/ΔDBD alone or together with Bcl-2. After 36 h, nuclei were stained by DAPI and nuclear fragmentation and chromatin condensation were identified. Cells were also stained with anti-Bcl-2 antibody, followed by TRITC-conjugated secondary antibody (Sigma). Bcl-2 and GFP-ΔDBD expression and nuclear morphology were visualized by fluorescence microscopy, and the two images were overlaid. […] But, when Bcl-2 was cotransfected, a significant amount of transfected cells underwent apoptosis. For example, approximately 4% of cells transfected with either TR3/ΔDBD or Bcl-2 were apoptotic, compared to 35% of cell transfected with both. […] Cotransfection of Bcl-2, however, prevented BAX-induced apoptosis in these cells (see FIG. 4). The effect of Bcl-2 on apoptotic potential of TR3/ΔDBD in lung cancer and breast cancer cells was also investigated.
To characterize the pro-apoptotic mechanism of Bcl-2 in the setting of TR3-induced apoptosis, various TR3 mutants and Bcl-2 mutants were co-expressed in HEK293T cells. TR3 mutants were transfected into 293T cells together with or without Bcl-2 expression vector or with Bcl-2 mutants. After 36 h, nuclei were stained by DAPI. Cells displaying nuclear condensation or fragmentation were scored.
The role of various Bcl-2 mutants in mediating apoptosis induction by TR3 was next studied. […] The hydrophobic cleft of Bcl-2 is involved in its anti-apoptotic effect through its interaction with BH3 domain of pro-apoptotic molecules (Reed 1997 Semin Hematol 34:9-19; Reed 1997 Nature 387:773-776). To investigate whether the BH3 domain-binding motif of Bcl-2 is also involved in its apoptotic effect, various Bcl-2 mutants including Y108K Bcl-2, with a mutation in the BH3 domain-binding cleft, L137A, and G145A (all with impaired interaction with bax), were cotransfected together with TR3/ΔDBD. […] Bcl-2 mutations (Y108K, L137A, G145A) that impaired its interaction with Bax, abolished the Bcl-2 inhibitory effect on Bax-induced apoptosis, consistent with previous observations that the hydrophobic cleft of Bcl-2 is essential for its anti-apoptotic effect. […] Thus, an intact BH3 domain-binding motif in Bcl-2 is involved in its pro-apoptotic effect. In contrast to the inhibitory effect of Bcl-2 on Bax-induced apoptosis TR3/ΔDBD-induced apoptosis was augmented by co-expression of Bcl-2 in HEK293T cells.
Mitochondrial targeting of TR3 has been previously identified as being involved in its apoptotic effect. To study whether mitochondrial localization of the TR3/ΔDBD/Bcl-2 complex was involved in their apoptotic effect, TR3/ΔDBD was cotransfected with Bcl-2/ATM, a Bcl-2 lacking its transmembrane domain. […] Thus, mitochondrial localization of TR3/ΔDBD/Bcl-2 complex is involved in this apoptotic effect.

Test [2] relates to HEK293T cells. The test can be described thus: Subcellular fractionation, heavy membrane (HM) fractions of HEK293T cells. It counts as cell-based, human. The protocol: Subcellular localization assays—Cells were seeded onto cover-slips in 6-well plates overnight, then transiently transfected with GFP-fusion expression plasmids. After 16 hours, cells were washed with PBS and fixed in 4% paraformaldehyde. For mitochondrial staining, cells were then incubated with anti-Hsp60 goat IgG (Santa Cruz, USA), followed by anti-goat IgG conjugated with Cy3 (Sigma). For cyt c staining, cells were incubated with monoclonal anti-cyt c IgG (PharMingen), followed by anti-mouse IgG conjugated with Cy5 (Amersham). Fluorescent images were collected and analyzed using a MRC-1024 MP laser-scanning confocal microscope (Bio-Rad). Subcellular fractionation assays were performed as described (Li, et al. 2000 Science 289:1159-1164). Briefly, cells (1×10^7 cells) suspended in 0.5 ml hypotonic buffer (5 mM Tris-HCl, pH 7.4, 5 mM KCl, 1.5 mM MgCl2, 0.1 mM EGTA, pH 8.0, and 1 mM DTT) were homogenized and cell extracts were centrifuged at 500×g for 5 min. The resulting supernatant was centrifuged at 10,000×g for 30 min at 4° C. to obtain the HM fraction. HM fraction was resuspended in 100 μl lysis buffer (10 mM Tris, pH 7.4, 150 mM NaCl, 1% Triton X-100, 5 mM EDTA, pH 8.0) for immunoblotting analysis. […]

For test [3], the target named is T1, Bcl-2/ΔBH4 (Homo sapiens, UniProt P10415, DEL7-30).
T1 construct: expressed in transfected cells; host or cells: HEK293T
T1 sequence (P10415 with tags, fused parts or gaps DEL7-30): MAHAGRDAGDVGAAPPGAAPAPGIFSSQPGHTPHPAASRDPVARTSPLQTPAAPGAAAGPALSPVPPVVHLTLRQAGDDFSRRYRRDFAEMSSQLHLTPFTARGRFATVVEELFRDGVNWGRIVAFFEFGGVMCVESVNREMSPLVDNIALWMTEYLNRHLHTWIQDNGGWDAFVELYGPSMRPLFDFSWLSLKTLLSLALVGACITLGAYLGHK
The test can be described thus: Co-IP assay with Bcl-2/ΔBH4. The class given is binding. The protocol:
Therefore, TR3/ΔDBD was analyzed as to its interaction with a fragment of Bcl-2 comprising the first 80 amino acids (Bcl-2/1-80). […] The Bcl-2/1-80 fragment encompasses the N-terminal BH4 domain followed by an unstructured loop domain of approximately 50 amino acids length. To determine whether the BH4 domain or the loop region was responsible for binding to TR3/ΔDBD, TR3/ΔDBD interaction with Bcl-2 mutants lacking the BH4 domain (Bcl-2/ΔBH4) or the loop region (Bcl-2/ΔLoop) was analyzed. […] Thus, the loop region of Bcl-2 is involved in binding to TR3.

In test [4] the test system is Calu-6 lung cancer cells. The test can be described thus: Mitochondrial targeting and cytochrome c release in Calu-6 cells. It counts as cell-based. From the text: TR3/ΔDBD targets mitochondria in NCI-H460 cells, which express high levels of Bcl-2 (Lu et al. 2001 Cancer Chemother Pharmacol 47:170-178). To determine whether Bcl-2 is involved in mitochondrial targeting of TR3, GFP-TR3/ΔDBD was transfected into Calu-6 lung cancer cells, which express low levels of Bcl-2. GFP-TR3/ΔDBD and Bcl-2 were transfected into Calu-6 lung cancer cells alone or together.

Test [5] relates to LNCaP cells. The test can be described thus: Colocalization of transfected GFP-TR3/ΔDBD and Bcl-2 in LNCaP cells. The class given is cell-based. The conditions noted are these: cotransfected with Bcl-2, 20 h. On the procedure: Next, the interaction of transfected TR3 and Bcl-2 was analyzed.
Where [6] appears, read: 293T, co-expressed with Bcl-2, 36 h, DAPI.

B1: TR3/ΔDBD/Δ471-488: TR3/ΔDBD with eighteen amino acids from 471 to 488 in the DC1 region deleted (protein)
chain: MPCIQAQYGTPAPSPGPRDHLASDPLTPEFIKPTMDLASPEAAPAAPTALPSFSTFMDGYTGEFDTFLYQLPGTVQPCSSASSSASSTSSSSATSPASASFKFEDFQVYGCYPGPLSGPVDEALSSSGSDYYGSPCSAPSPSTPSFQPPQLSPWDGSFGHFSPSQTYLVLFSRSLHSLLVDVPAFACLSALVLITDRHGLQEPRRVEELQNRIASCLKEHVAAVAGEPQPASCLSRLLGKLPELRTLCTQGLQRIFYLKLEDLVPPPPIIDKIFMDTLPF
modifications: left off: large carriers; small tags and cut ends
notes: TR3/ΔDBD with eighteen amino acids from 471 to 488 in the DC1 region deleted
As for B1, the apoptosis entry in test [1] (setting [6]) was “failed to confer the apoptotic potential of Bcl-2”. Also, the “accumulation in HM fraction” value in test [2] (either in the absence or presence of Bcl-2) is listed as “not found in the HM fraction”.

B2: TR3/ΔDBD: TR3 mutant with the DNA binding domain removed; used as GFP fusion (protein)
chain: MPCIQAQYGTPAPSPGPRDHLASDPLTPEFIKPTMDLASPEAAPAAPTALPSFSTFMDGYTGEFDTFLYQLPGTVQPCSSASSSASSTSSSSATSPASASFKFEDFQVYGCYPGPLSGPVDEALSSSGSDYYGSPCSAPSPSTPSFQPPQLSPWDGSFGHFSPSQTYLVLHRLQCARGFGDWIDSILAFSRSLHSLLVDVPAFACLSALVLITDRHGLQEPRRVEELQNRIASCLKEHVAAVAGEPQPASCLSRLLGKLPELRTLCTQGLQRIFYLKLEDLVPPPPIIDKIFMDTLPF
modifications: left off: large carriers; small tags and cut ends
notes: used as GFP fusion
As for B2, the “interaction with Bcl-2/ΔBH4 (Co-IP)” value in test [3] is reported as “retained the ability to interact”. In addition, the subcellular distribution entry in test [4] (Calu-6, Bcl-2 co-transfected) is reported as “targeted mitochondria”; in test [4] (Calu-6, alone), “diffusely distributed”. For the same molecule, in test [4] (Calu-6, Bcl-2 cotransfected), the cytochrome c release entry is recorded as “released from mitochondria”. Besides, the apoptosis entry in test [1] (setting [6]) is listed as “augmented”; in test [1] (293T, coexpression with Bcl-2/ΔTM), “did not result in apoptosis”; in test [1] (293T, cotransfected with Bcl-2 Y108K), “unable to induce apoptosis”; in test [1] (HEK293T, co-expression with Bcl-2/ΔLoop) it was “did not induce cell death”; in test [1] (co-expressed with Bcl-2 L137A and G145A), “retained the ability to promote apoptosis”; in test [1] (co-expressed with Bcl-2 mutants lacking TM, BH1, BH2 or BH3 domain), “incapable of inducing apoptosis”. Besides, the apoptotic cells result in test [1] (293T, transfected alone, 36 h, DAPI) is recorded as “approximately 4%”; in test [1] (293T, transfected with both TR3/ΔDBD and Bcl-2, 36 h, DAPI), 35%. Besides, the “accumulation in HM fraction” value in test [2] (presence of Bcl-2) was “accumulated in the HM fraction”. For the same molecule, the “transfected cells exhibiting colocalization with Bcl-2” value in test [5] is listed as “Approximately 30%”.
